Columns and labels:
[1] = biological target: MART-1 peptide on HLA-A*02:01 (human); assay: CD107a by flow cytometry; sorted TCR+ CD8- T cells incubated for 5 hours with peptide-loaded T2 cells. The result sentence names SEQ ID NO: 56, but the method says the cells were loaded with the analogue SEQ ID NO: 80.; full-length, on cells
[2] = biological target: MART-1 26-35 peptide (SEQ ID NO: 56) presented by HLA-A2 on cells (human); assay: cell-based or functional assay
[3] = biological target: TGFβRII frameshift peptide p573 (SEQ ID NO: 1) presented by HLA-A2 on cells (human); assay: cell-based or functional assay

## DMF5
[1]
  EC50 of peptide: 7 nM

## MART-1-specific TCR DMF5 (on the surface of transduced T-cells)
[2]
  EC50 of the peptide for CD107a staining of TCR+ CD8- T-cells after 5 hours with peptide-loaded HLA-A2+ T2 cells: 7 nM

B1: Radium-1 TCR (full-length, on the surface of T-cells) (TCR, V domains shown)
V domain 1: GIQVEQSPPDLILQEGANSTLRCNFSDSVNNLQWFHQNPWGQLINLFYIPSGTKQNGRLSATTVATERYSLLYISSSQTTDSGVYFCAVNAGNMLTFGGGTRLMVKP
V domain 2: DVKVTQSSRYLVKRTGEKVFLECVQDMDHENMFWYRQDPGLGLRLIYFSYDVKMKEKGDIPEGYSVSREKKERFSLILESASTNQTSMYLCASSSGVTGELFFGEGSRLTVLE
[3]
  EC50 of the peptide for CD107a staining of TCR+ CD8- T-cells after 5 hours with peptide-loaded HLA-A2+ T2 cells: 2 nM

From US20190336529A1 (OSLO UNIVERSITETSSYKEHUS HF, published 2019)
